Results: patent publication US20250262210A1 (TRUSTEES OF COLUMBIA UNIVERSITY IN THE CITY OF NEW YORK, published 2025)

Target: T1, RPAP1 (human, UniProt Q9BWH6 1-1393, limits assumed)
T1 sequence (looked up): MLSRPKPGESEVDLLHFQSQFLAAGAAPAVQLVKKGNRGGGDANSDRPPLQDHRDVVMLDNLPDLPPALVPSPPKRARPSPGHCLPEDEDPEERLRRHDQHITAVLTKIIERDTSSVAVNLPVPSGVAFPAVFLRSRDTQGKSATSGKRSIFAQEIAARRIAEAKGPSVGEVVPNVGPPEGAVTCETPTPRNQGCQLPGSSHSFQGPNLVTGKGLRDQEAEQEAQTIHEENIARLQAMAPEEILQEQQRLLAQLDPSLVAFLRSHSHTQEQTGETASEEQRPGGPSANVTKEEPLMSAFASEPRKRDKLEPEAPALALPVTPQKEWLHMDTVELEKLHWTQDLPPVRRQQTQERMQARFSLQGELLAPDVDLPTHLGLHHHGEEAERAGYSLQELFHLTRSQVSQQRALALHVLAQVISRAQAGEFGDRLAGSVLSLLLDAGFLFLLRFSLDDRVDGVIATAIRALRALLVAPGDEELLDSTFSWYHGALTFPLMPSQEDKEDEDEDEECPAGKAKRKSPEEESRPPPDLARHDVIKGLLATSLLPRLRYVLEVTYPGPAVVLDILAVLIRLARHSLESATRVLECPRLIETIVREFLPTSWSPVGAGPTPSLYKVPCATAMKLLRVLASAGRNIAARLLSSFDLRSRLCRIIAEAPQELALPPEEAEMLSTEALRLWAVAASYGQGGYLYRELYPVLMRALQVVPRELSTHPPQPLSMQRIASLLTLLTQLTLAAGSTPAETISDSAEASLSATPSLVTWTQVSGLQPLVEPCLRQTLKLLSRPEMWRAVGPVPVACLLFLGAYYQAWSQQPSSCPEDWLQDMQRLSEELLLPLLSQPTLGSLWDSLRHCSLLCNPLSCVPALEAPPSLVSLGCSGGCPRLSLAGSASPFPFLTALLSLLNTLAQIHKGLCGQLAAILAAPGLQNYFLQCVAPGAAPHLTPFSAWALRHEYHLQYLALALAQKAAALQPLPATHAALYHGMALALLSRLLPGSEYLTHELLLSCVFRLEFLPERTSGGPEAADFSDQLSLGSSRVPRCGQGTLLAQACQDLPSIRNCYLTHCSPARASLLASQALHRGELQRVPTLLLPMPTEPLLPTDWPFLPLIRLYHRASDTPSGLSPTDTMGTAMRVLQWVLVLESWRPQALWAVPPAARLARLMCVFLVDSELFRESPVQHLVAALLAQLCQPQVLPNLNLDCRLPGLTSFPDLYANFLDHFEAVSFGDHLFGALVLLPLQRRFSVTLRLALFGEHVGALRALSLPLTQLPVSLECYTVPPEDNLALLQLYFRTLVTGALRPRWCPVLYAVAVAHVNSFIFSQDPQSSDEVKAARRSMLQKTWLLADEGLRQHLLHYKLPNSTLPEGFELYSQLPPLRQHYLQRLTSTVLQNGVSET
Assay: IP/MS, LZTR1 wild type-FLAG, U87
How it was run: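 Extracted peptides in 3% acetonitrile/0.1% formic acid ran on a 50 cm C18 column into an Orbitrap Fusion, with MaxQuant identification and spectral counting.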

B1: LZTR1-FLAG (other, human, UniProt Q8N653 1-840, looked up)
chain: MAGPGSTGGQIGAAALAGGARSKVAPSVDFDHSCSDSVEYLTLNFGPFETVHRWRRLPPCDEFVGARRSKHTVVAYKDAIYVFGGDNGKTMLNDLLRFDVKDCSWCRAFTTGTPPAPRYHHSAVVYGSSMFVFGGYTGDIYSNSNLKNKNDLFEYKFATGQWTEWKIEGRLPVARSAHGATVYSDKLWIFAGYDGNARLNDMWTIGLQDRELTCWEEVAQSGEIPPSCCNFPVAVCRDKMFVFSGQSGAKITNNLFQFEFKDKTWTRIPTEHLLRGSPPPPQRRYGHTMVAFDRHLYVFGGAADNTLPNELHCYDVDFQTWEVVQPSSDSEVGGAEVPERACASEEVPTLTYEERVGFKKSRDVFGLDFGTTSAKQPTQPASELPSGRLFHAAAVISDAMYIFGGTVDNNIRSGEMYRFQFSCYPKCTLHEDYGRLWESRQFCDVEFVLGEKEECVQGHVAIVTARSRWLRRKITQARERLAQKLEQEAAPVPREAPGVAAGGARPPLLHVAIREAEARPFEVLMQFLYTDKIKYPRKGHVEDVLLIMDVYKLALSFQLCRLEQLCRQYIEASVDLQNVLVVCESAARLQLSQLKEHCLNFVVKESHFNQVIMMKEFERLSSPLIVEIVRRKQQPPPRTPLDQPVDIGTSLIQDMKAYLEGAGAEFCDITLLLDGHPRPAHKAILAARSSYFEAMFRSFMPEDGQVNISIGEMVPSRQAFESMLRYIYYGEVNMPPEDSLYLFAAPYYYGFYNNRLQAYCKQNLEMNVTVQNVLQILEAADKTQALDMKRHCLHIIVHQFTKVSKLPTLRSLSQQLLLDIIDSLASHISDKQCAELGADI
notes: Expressed in HEK 293T, HeLa or U87 cells; used as cell lysate; also called LZTR1 wild type-FLAG; LZTR1 WT; not shown: FLAG tag at the C-terminus
B1: binds.
